Consider one molecule from paper PMC12493207, “Annexin A2 interferes with complement regulation within the glomerulus” (The Journal of Biological Chemistry, 2025).

This assay deals with T1, recombinant murine Factor H (murine, UniProt P06909 19-1234).
T1 construct: murine complement Factor H, residues 19-1234 of UniProt P06909; also called FH; source: CHO cells, transfected, purified from the supernatant (HiTrap His column)
Nature of the assay: ELISA; Figure 1A-B: by the legend varying concentrations of Factor H immobilised on the plate, a fixed concentration of rA2 or of an annexin A2 fragment added, bound annexin A2 detected with an antibody (the methods tell the reverse: 800 ng rA2 adsorbed, Factor H 20 μg/ml in TBS with 2 mM Ca, 3 h, room temperature). The note with it: both partners purified.

T1 sequence (P06909 19-1234): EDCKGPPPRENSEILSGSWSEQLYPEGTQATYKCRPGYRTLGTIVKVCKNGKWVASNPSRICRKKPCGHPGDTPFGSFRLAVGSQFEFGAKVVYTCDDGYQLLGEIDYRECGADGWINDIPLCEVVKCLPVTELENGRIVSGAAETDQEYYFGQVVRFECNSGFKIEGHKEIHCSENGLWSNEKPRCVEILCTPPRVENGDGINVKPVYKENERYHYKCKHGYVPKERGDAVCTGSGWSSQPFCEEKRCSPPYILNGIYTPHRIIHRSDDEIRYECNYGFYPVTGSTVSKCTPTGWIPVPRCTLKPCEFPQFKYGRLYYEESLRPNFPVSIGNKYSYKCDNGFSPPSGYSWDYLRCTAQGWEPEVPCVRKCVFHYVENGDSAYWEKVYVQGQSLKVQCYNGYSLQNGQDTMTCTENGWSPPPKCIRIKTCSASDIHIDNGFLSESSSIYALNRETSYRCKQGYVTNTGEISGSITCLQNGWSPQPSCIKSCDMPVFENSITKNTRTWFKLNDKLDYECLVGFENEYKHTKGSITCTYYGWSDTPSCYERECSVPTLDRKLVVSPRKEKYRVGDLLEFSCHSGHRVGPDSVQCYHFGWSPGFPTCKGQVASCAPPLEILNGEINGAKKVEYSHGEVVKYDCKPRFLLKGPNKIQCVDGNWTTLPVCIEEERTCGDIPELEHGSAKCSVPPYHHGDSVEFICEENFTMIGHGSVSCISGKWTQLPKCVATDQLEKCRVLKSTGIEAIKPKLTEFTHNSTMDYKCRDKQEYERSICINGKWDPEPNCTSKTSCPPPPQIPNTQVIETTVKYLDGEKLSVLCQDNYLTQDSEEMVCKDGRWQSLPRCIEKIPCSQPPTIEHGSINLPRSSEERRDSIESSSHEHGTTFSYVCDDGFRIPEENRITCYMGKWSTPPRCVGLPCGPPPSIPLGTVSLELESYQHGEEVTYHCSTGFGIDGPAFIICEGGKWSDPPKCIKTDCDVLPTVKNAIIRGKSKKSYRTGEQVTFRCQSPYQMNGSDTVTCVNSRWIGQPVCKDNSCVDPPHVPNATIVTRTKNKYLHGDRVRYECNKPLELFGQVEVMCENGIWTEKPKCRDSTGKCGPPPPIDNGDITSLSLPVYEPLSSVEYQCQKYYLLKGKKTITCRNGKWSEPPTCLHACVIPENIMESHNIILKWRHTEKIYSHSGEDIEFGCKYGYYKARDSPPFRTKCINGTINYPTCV

B1: recombinant annexin A2 (natural protein, mouse, UniProt P07356 1-339, looked up)
chain: MSTVHEILCKLSLEGDHSTPPSAYGSVKPYTNFDAERDALNIETAVKTKGVDEVTIVNILTNRSNVQRQDIAFAYQRRTKKELPSALKSALSGHLETVILGLLKTPAQYDASELKASMKGLGTDEDSLIEIICSRTNQELQEINRVYKEMYKTDLEKDIISDTSGDFRKLMVALAKGRRAEDGSVIDYELIDQDARELYDAGVKRKGTDVPKWISIMTERSVCHLQKVFERYKSYSPYDMLESIKKEVKGDLENAFLNLVQCIQNKPLYFADRLYDSMKGKGTRDKVLIRIMVSRSEVDMLKIRSEFKRKYGKSLYYYIQQDTKGDYQKALLYLCGGDD
notes: annexin A2, mouse; cDNA reverse transcribed from total mRNA of a C57BL/6 mouse kidney; also called rA2; AnxA2; source: CHO cells, transfected, purified from the supernatant (HiTrap His column)
B1: the binding result is reported as “binds”.
